This experiment has as its target HLA-A2-mCFP (human). The experiment is described as follows: FRET or BRET.

One molecule from paper PMC2802452 can be followed below.

B1: Bap31-mYFP-KKEE (natural protein)
chain: MSLQWTAVATFLYAEVFVVLLLCIPFISPKRWQKIFKSRLVELLVSYGNTFFVVLIVILVLLVIDAVREIRKYDDVTEKVNLQNNPGAMEHFHMKLFRAQRNLYIAGFSLLLSFLLRRLVTLISQQATLLASNEAFKKQAESASEAAKKYMEENDQLKKGAAVDGGKLDVGNAEVKLEEENRSLKADLQKLKDELASTKQKLEKAENQVLAMRKQSEGLTKEYDRLLEEHAKLQAAVDGPMDKKEE
As to B1, the FRET efficiency at A:D of 1 came out at 5% and the fold FRET at A:D 1:1 after feeding Tax peptide, against controls stood at 2 fold.
